Target: CoV2_5P prefusion-stabilized spike protein (SARS-CoV-2) (UniProt P0DTC2)
Test: ELISA

For CR3022 (antibody), the EC50 (read off the curve) was 0.02 µg/mL.

— patent publication US20250134988A1
